Test results taken from patent US9962507B2, “Droplet delivery device for delivery of fluids to the pulmonary system and methods of use” (PNEUMA RESPIRATORY, INC., priority 2016, dated 2018).

Experiments:
Type in all cases: physicochemical
[1] = Gravimetric analysis of delivered dose per actuation; settings: average of five doses (actuations)
Protocol: Gravimetric analysis was performed by weighing the Enbrel solution filled ampule before and after dosing. The average of five doses (actuations) were analyzed with an average of 4.25 mg+/−0.15 mg. The total delivered dose of Enbrel per actuation is therefore […] per actuation.
Gravimetric analysis was performed by weighing the Insulin solution filled ampule before and after dosing. The average of five doses (actuations) were analyzed with an average of 5.01 mg+/−0.53 mg. The total delivered dose of Insulin per actuation is therefore 34.8 mcg per actuation.

[2] = Gel electrophoresis of active agent after droplet generation
Source text: To determine the stability of active agent after droplet generation, the generated stream of droplets including the active agent is collected and the molecular weight of the active agent is verified using gel electrophoresis.

[3] = Size exclusion chromatography (SEC) stability after aerosol generation with test device
Source text: Alternately, to determine the stability of active agent after droplet generation, the generated stream of droplets including the active agent may be collected and […] may be employed to monitor for any changes in large molecule aggregation and protein fragment content. Soluble protein aggregates and protein fragment content may be calculated by comparing respective peak area under the SEC-HPLC curve of dispensed protein solutions with controls (solutions remaining in the device reservoir). Drug solutions for testing include Enbrel, (ENBREL® single-use prefilled syringes in 25 mg (0.51 mL of a 50 mg/mL solution of etanercept), and insulin, (Humalog, 200 units/ml, 3 ml […] is performed with a […] 3 μm SEC-2000 LC column 300×7.8 mm, SecurityGuard cartridge kit and SecurityGuard cartridges GFC-2000, 4×3 mm ID. Fifty microliters of Enbrel from the syringe (ENBREL® single-use prefilled syringes in 25 mg/0.51 mL of a 50 mg/mL solution of etanercept) is diluted (4:1) (4 parts, 200 mcl of the mobile phase buffer solution to 1 part, 50 mcl Enbrel from syringe). Fifty microliter of the diluted Enbrel is injected and separation was performed at a flow rate of 1.0 ml/min. The mobile phase buffer system included a PHOS. BUFF. SALINE. […] UV detection is performed at 280 nm. […] Aerosol collection and SEC is performed in a similar fashion as for the Enbrel analysis and aerosol collection. […] Fifty microliters of the collected aerosol spray is injected onto the SEC column for analysis, while 50 mcl of the […] insulin solution is injected onto the SEC column for control samples.

[4] = Anderson Cascade Impactor testing of Albuterol sulfate aerosol from the droplet delivery device (Example B); settings: Albuterol 0.5%, 28.3 lpm
Protocol: Droplet size distribution and related functionality was evaluated for exemplary droplet delivery devices of the disclosure, including Anderson Cascade Impactor testing, total drug mass output rates, total drug respirable mass, delivery efficiencies and reproducibility.
The study was designed to evaluate device performance of a single Pneuma™ inhaler. A series of three (3) individual tests were conducted with a new disposable drug cartridge for each test. The testing platform utilizes an eight-stage nonviable Anderson Cascade Impactor (Thermo Fisher Scientific; Waltham, Mass.) equipped with a calibrated AALBORG model GFM47 mass flow meter (AALBORG Instruments and Controls; Orangeburg, N.Y.) for flow rate measurement.
At the conclusion of each test, the mouthpiece was rinsed with mobile phase and collected for HPLC analysis to determine the mass fraction of non-respirable aerosolized drug captured in the mouthpiece via inertial filtering. Following each test, impactor stage samples were extracted and recovered in solvent and analyzed for the active pharmaceutical ingredient (API) using a Dionex Ultimate 3000 nano-HPLC with UV detection (Thermo Scientific, Sunnyvale, Calif.).
The cascade impactor testing procedure involved fitting the mouthpiece into the Impactor USP throat with a mouthpiece connection seal. […]
The device was connected to the impactor USB throat, turned on, and actuated ten (10) times for each test. […] The i mouthpiece was rinsed in order to extract drug, and all stages of the cascade impactor were rinsed with a quantity of appropriate solvent (HPLC mobile phase). Extracted samples were placed in labeled and sterile HPLC vials, capped, and analyzed for drug content via HPLC with UV detection. The mouthpiece was extracted of residual drug and analyzed for drug content via HPLC to measure mouthpiece drug deposition in relation to the total collected on the impactor stages.
All system flow rates and impactor sample flows were monitored throughout each test period. […]

[5] = Enbrel control (not aerosolized)

Substance	average solution mass per dose (actuation), ampule weighed before and after dosing [1]	change in electrophoretic mobility (molecular weight) of post-aerosol active agent versus control [2]	Peak Area %, Peak 4 [3, 5]	Peak Area %, Peak 5 [3, 5]	dose that leads to formation of molecular fragments ([3]; Enbrel, fragments with elution times of 13 and 25 minutes)	droplets of an average diameter of less than about 4 μm ([4]; 10 actuations)	Fine ([4]; fraction summary table)	Throat ([4]; fraction summary table)	Peak Area %, Peak 3, Avg. ([3]; Insulin aerosolized, average of S1 and S2)	Peak Area %, Peak 3 ([3]; Insulin control (not aerosolized))	ejected dose that forms a fragment ([3]; Insulin, fragment elutes at ~25 minutes)
etanercept [Enbrel]	4.25 mg	negligible change	0%	0%	4.6%						
Albuterol sulfate						over 70%	3.5	4.6			
Insulin: insulin, Humalog, 200 units/ml, 3 ml kwikpens	5.01 mg								2.4905%	0%	2.5%
